Source: US20210340257A1

What was measured:
[1] = target: human B7-H3 (CD276), on cells (human) (UniProt Q5ZPR3); assay: parallel-plate flow chamber attachment of microbubbles to MS1 B7-H3+ cells under shear
[2] = target: human B7-H3 (CD276), on cells (human) (UniProt Q5ZPR3); assay: flow chamber attachment of microbubbles to MS1hB7-H3 cells under shear
[3] = target: mouse B7-H3, on cells (mouse) (UniProt Q8VE98); assay: cell-based or functional assay
[4] = target: human B7-H3 (CD276), on cells (human) (UniProt Q5ZPR3); assay: cell-based or functional assay
[5] = target: recombinant soluble human B7-H3 ectodomain protein (human) (UniProt Q5ZPR3); assay: flow cytometry; antibody on streptavidin magnetic beads, 3 µM soluble B7-H3, detected with APC anti-B7-H3 antibody
[6] = target: recombinant soluble human B7-H3 ectodomain protein (human) (UniProt Q5ZPR3); assay: flow cytometry; unconjugated streptavidin magnetic beads, 3 µM soluble B7-H3, detected with APC anti-B7-H3 antibody

Sequence of human B7-H3 (CD276), on cells (human) (Q5ZPR3 29-534): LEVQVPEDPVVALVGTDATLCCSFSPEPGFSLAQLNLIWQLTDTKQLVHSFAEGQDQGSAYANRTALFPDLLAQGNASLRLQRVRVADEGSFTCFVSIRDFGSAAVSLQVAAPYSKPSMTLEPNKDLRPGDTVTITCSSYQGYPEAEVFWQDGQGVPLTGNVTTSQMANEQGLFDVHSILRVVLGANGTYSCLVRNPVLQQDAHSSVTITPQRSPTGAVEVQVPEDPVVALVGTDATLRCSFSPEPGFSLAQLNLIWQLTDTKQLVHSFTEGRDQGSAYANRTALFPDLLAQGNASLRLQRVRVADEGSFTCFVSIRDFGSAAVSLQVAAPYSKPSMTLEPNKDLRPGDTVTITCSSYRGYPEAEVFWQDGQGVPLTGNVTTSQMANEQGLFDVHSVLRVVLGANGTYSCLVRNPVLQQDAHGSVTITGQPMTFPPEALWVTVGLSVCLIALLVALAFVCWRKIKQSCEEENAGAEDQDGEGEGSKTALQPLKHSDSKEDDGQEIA
Sequence of mouse B7-H3, on cells (mouse) (Q8VE98 29-316): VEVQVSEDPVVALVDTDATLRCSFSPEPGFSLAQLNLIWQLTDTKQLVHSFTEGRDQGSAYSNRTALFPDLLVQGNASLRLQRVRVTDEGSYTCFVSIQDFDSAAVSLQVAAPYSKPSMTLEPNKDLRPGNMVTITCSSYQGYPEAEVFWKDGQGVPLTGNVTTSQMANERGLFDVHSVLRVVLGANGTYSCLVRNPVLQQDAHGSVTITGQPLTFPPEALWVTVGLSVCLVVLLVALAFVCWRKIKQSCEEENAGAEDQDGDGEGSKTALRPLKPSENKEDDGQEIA

microbubbles attached per cell [1] [MB/cell]	microbubbles attached per cell [2] [MB/cell]	US molecular imaging signal, mammary tumors of MMTV-PyMT transgenic mice [3] [a.u.]	in vivo ultrasound molecular imaging signal of tumors (transgenic mouse model) [3] [a.u.]	targeted imaging signal in transgenic mice with breast tumors [3] [a.u.]	US molecular imaging signal, orthotopic MDA-MB-231 tumors co-implanted with MS1hB7-H3 cells [4] [a.u.]	% binding [5] [%]	% binding [6] [%]	Substance
0.5	0.5							MBNon-targeted (unconjugated streptavidin-coated microbubbles) (from UniProt P22629 37-163)
9.79	9.8	7.2	4.82	6.22	8.2	81		biotinylated anti-B7-H3 antibody (eBiosciences, clone M3.2D7)
							1	unconjugated streptavidin magnetic beads (from UniProt P22629 37-163)
